Source: patent US20150218281A1 (Ablynx, published 2015)
Blank lines part the entries; values can stand above or below the binder they belong to.

Legend:
[1] = target: T1, full length human OX40L expressed on CHO cells (human, UniProt P23510 1-183); assay: cell-based or functional assay
T1 sequence: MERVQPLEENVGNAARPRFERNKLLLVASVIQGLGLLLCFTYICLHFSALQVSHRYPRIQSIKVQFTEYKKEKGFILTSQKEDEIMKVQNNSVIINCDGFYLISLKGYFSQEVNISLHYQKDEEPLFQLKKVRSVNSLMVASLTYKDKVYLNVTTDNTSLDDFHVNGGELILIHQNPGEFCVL

[2] = target: T1, full length human OX40L expressed on …; assay: competition FACS with hOX40/Fc on CHO-hOX40L
Procedure: The competition FACS assay was performed as described in example 2.

[3] = target: T2, recombinant human OX40L (extracellular domain, R&D Systems) (human, UniProt P23510 51-183); assay: SPR, after second injection of buffer HBS-EP+
T2 construct: also called hOX40L; rec. hOX40L
T2 sequence: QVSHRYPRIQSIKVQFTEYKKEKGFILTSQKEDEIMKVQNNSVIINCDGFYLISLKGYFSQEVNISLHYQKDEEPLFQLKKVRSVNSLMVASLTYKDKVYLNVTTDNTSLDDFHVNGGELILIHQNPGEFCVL
Procedure: (§1) In addition, it was investigated to what extend the 7 anti-OX40L Nanobodies have a different or identical or overlapping epitope. Standard conditions were as described above. […] 1300 RU. A dual injection was performed at 10 μl/min for 2 min, starting with 500 nM of the first Nanobody, followed by 500 nM of the second Nanobody. After 10 min dissociation, regeneration of the surface was performed by injection of 50 mM NaOH for 5-20 sec at 100 μl/min.

[4] = target: T1, full length human OX40L expressed on …; assay: FACS binding to CHO cells, anti-c-myc detection
Procedure: (§2) Transfection of CHO K1 with the respective expression plasmid DNA and selection of clones with high expression levels was performed as described in Example 1. Binding of the Nanobodies to the cell surface expressed OX40L was assessed by FACS analysis of cells as described below.
(§3) After washing bound Nanobodies were detected in FACSArray™ using mouse anti-c-myc and PE conjugated goat anti-mouse IgG.

[5] = target: T3, cynomolgus OX40L expressed on CHO cells (cynomolgus monkey, UniProt P23510 1-183 (human entry)); assay: FACS binding to CHO cells, anti-c-myc detection
T3 construct: also called cynoOX40L; CHO-cynoOX40L
T3 chain: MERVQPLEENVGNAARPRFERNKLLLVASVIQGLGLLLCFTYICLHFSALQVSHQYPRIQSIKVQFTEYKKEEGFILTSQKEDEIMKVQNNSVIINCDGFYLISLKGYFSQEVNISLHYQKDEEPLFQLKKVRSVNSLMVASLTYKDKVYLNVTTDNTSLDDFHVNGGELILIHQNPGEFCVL
Procedure: as §2, §3

[6] = target: T2, recombinant human OX40L (extracellular …); assay: SPR, second injection after competitor OX40L01B11
Procedure: as §1

[7] = target: T2, recombinant human OX40L (extracellular …); assay: SPR, second injection after competitor OX40L01E07
Procedure: as §1

[8] = target: T2, recombinant human OX40L (extracellular …); assay: SPR, second injection after competitor OX40L01E10
Procedure: as §1

[9] = target: T2, recombinant human OX40L (extracellular …); assay: SPR, second injection after competitor OX40L15B07
Procedure: as §1

[10] = target: T2, recombinant human OX40L (extracellular …); assay: SPR, second injection after competitor OX40L18E09
Procedure: as §1

[11] = target: T2, recombinant human OX40L (extracellular …); assay: SPR, second injection after competitor OX40L19A07
Procedure: as §1

[12] = target: T2, recombinant human OX40L (extracellular …); assay: SPR, second injection after competitor OX40L19D08
Procedure: as §1

[13] = target: T4, biotinylated hOX40L (R&D Systems, biotinylated in house) (human, UniProt P23510 51-183, biotinylated with Sulfo-NHS-LC-Biotin, sites not stated); assay: AlphaScreen, 31 pM biotinylated hOX40L + 80 pM OX40/Fc
T4 construct: same bought protein as m10, biotinylated; also called biotinylated OX40L
T4 sequence: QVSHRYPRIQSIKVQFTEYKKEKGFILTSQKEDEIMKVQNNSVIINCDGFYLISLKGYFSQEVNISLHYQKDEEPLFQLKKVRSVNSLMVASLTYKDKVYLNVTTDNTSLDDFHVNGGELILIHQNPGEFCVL
Procedure: (§4) Next, streptavidin donor beads were added and incubated for an additional 1 hour. Fluorescence was measured by reading plates on the EnVision Multilabel Plate Reader using an excitation wavelength of 680 nm and an emission wavelength of 520 nm.

hTNF-alpha = hTNF-alpha (human, UniProt P01375 77-233); assay: competition ELISA on neutravidin captured biotinylated hOX40L
Procedure: (§5) The binding of OX40L blocking Nanobodies to other TNF family members was tested in a competition ELISA.
(§6) Detection was done using sTMB (SDT Reagents, Baesweiler, Germany), the reaction was stopped with 1M HCl and absorbance was determined at 450 nm.

hCD40L = target: T5, hCD40L (human, UniProt P29965 113-261); assay: as above
T5 sequence (looked up): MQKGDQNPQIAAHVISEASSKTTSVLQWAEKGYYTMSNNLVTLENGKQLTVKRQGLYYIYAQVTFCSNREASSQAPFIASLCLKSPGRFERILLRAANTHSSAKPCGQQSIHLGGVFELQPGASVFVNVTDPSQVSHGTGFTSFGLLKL
Procedure: as §5, §6

hCD30L = target: T6, hCD30L (human, UniProt P32971 63-234); assay: as above
T6 sequence (looked up): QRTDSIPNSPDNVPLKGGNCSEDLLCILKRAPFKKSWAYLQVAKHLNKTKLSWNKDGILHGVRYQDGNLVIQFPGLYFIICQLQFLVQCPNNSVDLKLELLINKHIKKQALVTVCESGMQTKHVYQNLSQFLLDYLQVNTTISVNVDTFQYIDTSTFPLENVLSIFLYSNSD
Procedure: as §5, §6

[14] = target: T7, human Receptor Activator for Nuclear Factor kappa B Ligand (human, UniProt O14788 143-317, limits assumed); assay: as above
T7 construct: also called hRANKL; RANKL
T7 sequence (looked up): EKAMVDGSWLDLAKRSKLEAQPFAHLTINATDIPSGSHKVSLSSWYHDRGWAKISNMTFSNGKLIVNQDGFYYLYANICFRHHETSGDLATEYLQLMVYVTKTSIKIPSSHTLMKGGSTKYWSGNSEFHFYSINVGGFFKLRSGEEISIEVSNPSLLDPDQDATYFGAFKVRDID
Procedure: as §5, §6

[15] = target: T8, human tumor necrosis factor-related apoptosis inducing ligand (human, UniProt P50591 114-281); assay: as above
T8 construct: also called hTRAIL; TRAIL
Procedure: as §5, §6

[16] = target: T4, biotinylated hOX40L (R&D Systems, …); assay: AlphaScreen, 120 pM biotinylated hOX40L + 0.2 nM hOX40/Fc
Procedure: as §4

[17] = target: T1, full length human OX40L expressed on …; assay: competition FACS, 3.1 nM hOX40/Fc on hOX40L expressing cells
[18] = target: T2, recombinant human OX40L (extracellular …); assay: cell-based or functional assay
[19] = target: T4, biotinylated hOX40L (R&D Systems, …); assay: hOX40L/hOX40 AlphaScreen, assay 1, native
Procedure: Next, streptavidin donor beads were added and incubated for an additional 1 hour. Fluorescence was measured by reading plates on the EnVision Multilabel Plate Reader using an excitation wavelength of 680 nm and an emission wavelength of 520 nm. […]

[20] = target: T4, biotinylated hOX40L (R&D Systems, …); assay: hOX40L/hOX40 AlphaScreen, assay 2, native
Procedure: as §4
(§7) In the TSA assay, Nanobodies were diluted to a concentration of 0.2 mg/ml and melting temperature (Tm) was determined at different pH by stepwise increase in temperature in presence of Sypro Orange, a dye that binds to […] residues that become exposed upon unfolding of the protein, using the Lightcycler (Roche) for detection. […] In SEC analysis, the Nanobodies were analyzed on a Phenomenex matrix to allow detection of multimers, aggregates or ‘stickyness’.

[21] = target: T4, biotinylated hOX40L (R&D Systems, …); assay: hOX40L/hOX40 AlphaScreen, assay 3, native
Procedure: as §4, §7

[22] = target: T4, biotinylated hOX40L (R&D Systems, …); assay: hOX40L/hOX40 AlphaScreen, assay 2, heated at Tm+10 C
Procedure: as §4, §7

[23] = target: T4, biotinylated hOX40L (R&D Systems, …); assay: hOX40L/hOX40 AlphaScreen, assay 3, heated at Tm+10 C
Procedure: as §4, §7

T8 sequence (P50591 114-281 limits assumed): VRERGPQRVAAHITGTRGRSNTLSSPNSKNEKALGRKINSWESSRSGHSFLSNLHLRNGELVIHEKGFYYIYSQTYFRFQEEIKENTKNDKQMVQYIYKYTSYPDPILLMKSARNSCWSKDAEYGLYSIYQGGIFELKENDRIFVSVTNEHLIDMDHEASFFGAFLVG
Sequence of hTNF-alpha (P01375 77-233 limits assumed): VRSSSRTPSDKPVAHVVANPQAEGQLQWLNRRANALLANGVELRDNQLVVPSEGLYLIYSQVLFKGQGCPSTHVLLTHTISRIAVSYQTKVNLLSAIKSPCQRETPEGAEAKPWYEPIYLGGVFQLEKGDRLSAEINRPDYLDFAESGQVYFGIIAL

IC50, IL4 production, T-cell activation assay, donor 1 [1]: 110 nM
IC50, IL4 production, T-cell activation assay, donor 2 [1]: 159 nM
IC50, IL4 production, T-cell activation assay, donor 3 [1]: 27 nM
IC50, IL4 production, T-cell activation assay, donor 4 [1]: 12 nM
IC50 [2]: 12 nM
Binding Level sample 2 (RU) [3]: 185 RU
Binding Level sample 2 - sample 1 (RU) [3]: -26 RU
EC50 [4]: 3.77 nM
EC50 [5]: 5.54 nM
Binding Level sample 2 (RU) [6]: 342 RU
Binding Level sample 2 - sample 1 (RU) [6]: -7 RU
Binding Level sample 2 (RU) [7]: 193 RU
Binding Level sample 2 - sample 1 (RU) [7]: 5 RU
Binding Level sample 2 (RU) [8]: 215 RU
Binding Level sample 2 - sample 1 (RU) [8]: 8 RU
Binding Level sample 2 (RU) [9]: 190 RU
Binding Level sample 2 - sample 1 (RU) [9]: 5 RU
Binding Level sample 2 (RU) [10]: 176 RU
Binding Level sample 2 - sample 1 (RU) [10]: -2 RU
Binding Level sample 2 (RU) [11]: 183 RU
Binding Level sample 2 - sample 1 (RU) [11]: 17 RU
Binding Level sample 2 (RU) [12]: 202 RU
Binding Level sample 2 - sample 1 (RU) [12]: -13 RU
IC50 [13]: 0.264 nM
IC50 [16]: 0.49 nM
IC50 [17]: 9.11 nM
B1: OX40L01E10 (VHH)
VHH: EVQLVESGGGLVQAGDSLRLSCAASGLTFSSFAMGWFRQAPGKEREFVAAISRSGYGTSEADSVRDRFIISRDNAKNTVTLHLSRLKPEDTAVYYCAAEHTLGRPSRSQINYLYWGQGTQVTVSS
notes: monovalent Nanobody from E. coli; not shown: C-terminal c-myc and His6 tag
binding result (hTNF-alpha): no binding (tested: starting from 100 fold molar excess)
binding result (hCD40L): no binding (tested: starting from 100 fold molar excess)
binding result (hCD30L): no binding (tested: starting from 100 fold molar excess)
binding result [14]: no binding (tested: starting from 100 fold molar excess)
binding result [15]: no binding (tested: starting from 100 fold molar excess)

IC50, T cell assay with rec. hOX40L [18]: 9 nM
IC50 [19]: 0.046 nM
IC50 [20]: 0.092 nM
IC50 [21]: 0.102 nM
IC50 [22]: 0.084 nM
IC50 [23]: 0.082 nM
B2: OX40L040 (VHH, not shown: small tags and cut ends)
VHH: DVQLVESGGGLVQPGGSLRLSCAASRSIGRLDRMGWYRHRTGEPRELVATITGGSSINYGDFVKGRFTISRDNSKNTVYLQMNSLRPEDTAVYYCNFNKYVTSRDTWGQGTLVTVSS
